Square brackets hold non-standard residues; d marks the D form. Pra = C#CC[C@H](N)C(=O)O

In assay [1] the target is T1, C. elegans DPY19 (CeDPY19), tryptophan C-mannosyltransferase, with a C-terminal FLAG3 tag (C. elegans, UniProt P34413 1-683).
T1 construct: C. elegans DPY19 (CeDPY19), synthetic gene construct; Eluted from the FLAG gel with FLAG peptide; no cleavage of the tag is described; also called CMT
T1 sequence: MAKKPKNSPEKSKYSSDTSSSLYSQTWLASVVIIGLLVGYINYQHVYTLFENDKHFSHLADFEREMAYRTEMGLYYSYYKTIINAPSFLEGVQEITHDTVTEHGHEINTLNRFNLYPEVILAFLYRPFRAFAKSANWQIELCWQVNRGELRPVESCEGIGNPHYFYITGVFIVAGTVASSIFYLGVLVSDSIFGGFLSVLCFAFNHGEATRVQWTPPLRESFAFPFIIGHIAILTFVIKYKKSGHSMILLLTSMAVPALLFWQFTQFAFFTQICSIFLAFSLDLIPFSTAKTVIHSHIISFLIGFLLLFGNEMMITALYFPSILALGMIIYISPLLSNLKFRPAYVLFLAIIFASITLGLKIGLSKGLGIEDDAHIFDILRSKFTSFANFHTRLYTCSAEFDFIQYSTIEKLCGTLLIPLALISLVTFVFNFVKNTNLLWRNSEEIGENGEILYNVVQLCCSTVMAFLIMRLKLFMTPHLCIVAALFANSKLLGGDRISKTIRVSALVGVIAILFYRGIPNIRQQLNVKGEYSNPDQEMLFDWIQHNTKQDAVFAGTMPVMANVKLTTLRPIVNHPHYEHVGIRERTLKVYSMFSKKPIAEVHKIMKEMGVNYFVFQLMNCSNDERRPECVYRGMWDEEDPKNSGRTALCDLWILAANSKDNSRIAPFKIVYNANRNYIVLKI
The assay is described as follows: cryo-EM structure; CeDPY19-CMT2-Fab-anti-Fab Nb complex (35 uM) with 1 mM acceptor peptide WEHI-1886493, 1-2 h on ice. The note with it: both partners purified.

In assay [2] the target is T2, Biotinylated C. elegans DPY19 (CeDPY19) with a C-terminal Avitag (Caenorhabditis elegans (strain not …, UniProt P34413, biotin (enzymatic, BirA) on the Avitag)).
T2 construct: C. elegans DPY19 (CeDPY19); also called biotinylated CeDPY19; target; not shown: Avitag, C-terminal, kept
Description: ELISA; multipoint protein ELISA; 30 nM biotinylated CeDPY19 immobilised on a neutravidin-coated plate, threefold serial dilutions of purified Fab from 4 uM, 20 min, 4 °C; 20 mM HEPES pH 7.4, 150 mM NaCl, 0.01% LMNG, 0.001% CHS, 0.5% BSA; detected with HRP-protein L. The note with it: both partners purified. For orientation: In an ELISA, binding on a coated surface is turned into a signal by an enzyme label.

B1: Synthetic acceptor octapeptide WEHI-1886493 (Ac-Pra-GSWAKWS-NH2) (peptide)
peptide: Ac-[Pra]GSWAKWS-NH2
SMILES: C#CC[C@H](NC(C)=O)C(=O)NCC(=O)N[C@@H](CO)C(=O)N[C@@H](Cc1c[nH]c2ccccc12)C(=O)N[C@@H](C)C(=O)N[C@@H](CCCCN)C(=O)N[C@@H](Cc1c[nH]c2ccccc12)C(=O)N[C@@H](CO)C(N)=O
notes: Eight residues in all: Pra (propargylglycine) followed by GSWAKWS; also called acceptor peptide; source: synthetic peptide
Regarding B1, in assay [1], the binding result is “binds”.

B2: CMT2-Fab, synthetic Fab selected by phage display against CeDPY19 (Fab, V domains shown)
VH: EVQLVESGGGLVQPGGSLRLSCAASGFNISSSSIHWVRQAPGKGLEWVASISSSYGYTSYADSVKGRFTISADTSKNTAYLQMNSLRAEDTAVYYCARSSSVYWSWWGYSAFDYWGQGTLVTVSS
VL: DIQMTQSPSSLSASVGDRVTITCRASQSVSSAVAWYQQKPGKAPKLLIYSASSLYSGVPSRFSGSRSGTDFTLTISSLQPEDFATYYCQQGASEPITFGQGTKVEIK
notes: source: E. coli C43 (Pro+), purified (Protein L, Resource S)
Turning to B2, in assay [2], the EC50 was 17 nM.

As a reminder, the EC50 is the concentration at which the effect is half-maximal. A low value points to an effect from little substance.

These data come from PMC10154233, “Structure, sequon recognition and mechanism of tryptophan C-mannosyltransferase” (Nature Chemical Biology, 2023).
